# Results taken from patent US20220249633A1.
# B1: … (SEQ ID NO: 311) (peptide)
# peptide: EYLQNLNHI
# B2: … (SEQ ID NO: 341) (peptide)
# peptide: SYLTQHQRI
# B3: … (SEQ ID NO: 258) (peptide)
# peptide: AYAQLGYLL
# B4: … (SEQ ID NO: 309) (peptide)
# peptide: KYYRQTLLF
# B5: … (SEQ ID NO: 306) (peptide)
# peptide: VYPAEQPQI
# B6: … (SEQ ID NO: 266) (peptide)
# peptide: KYTDWTEFL
# B7: … (SEQ ID NO: 305) (peptide)
# peptide: NYENKQYLF
# B8: … (SEQ ID NO: 303) (peptide)
# peptide: LYSVIKEDF
# B9: … (SEQ ID NO: 293) (peptide)
# peptide: VYPHFSTTNLI
# B10: … (SEQ ID NO: 261) (peptide)
# peptide: GYIKLINFI
# B11: … (SEQ ID NO: 319) (peptide)
# peptide: KYSDVKNLI
# B12: … (SEQ ID NO: 344) (peptide)
# peptide: EYNSDLHQF
# B13: … (SEQ ID NO: 301) (peptide)
# peptide: KFDDVTMLF
# B14: … (SEQ ID NO: 262) (peptide)
# peptide: VYSSQFETI
# B15: … (SEQ ID NO: 290) (peptide)
# peptide: KYGDFKLLEF
# B16: … (SEQ ID NO: 300) (peptide)
# peptide: TYPSQLPSL
# B17: … (SEQ ID NO: 272) (peptide)
# peptide: RYVFPLPYL
# B18: … (SEQ ID NO: 288) (peptide)
# peptide: VYPDTVALTF
# B19: … (SEQ ID NO: 285) (peptide)
# peptide: VYVGDALLHAI
# B20: … (SEQ ID NO: 268) (peptide)
# peptide: IFITKALQI
# B21: … (SEQ ID NO: 263) (peptide)
# peptide: RYILENHDF
# B22: VYAEVNSL (SEQ ID NO: 347) (peptide)
# peptide: VYAEVNSL
# B23: … (SEQ ID NO: 286) (peptide)
# peptide: SYGTILSHI
# B24: … (SEQ ID NO: 284) (peptide)
# peptide: DYLKDPVTI
# B25: … (SEQ ID NO: 317) (peptide)
# peptide: VFDTSIAQLF
# B26: … (SEQ ID NO: 279) (peptide)
# peptide: VWLPASVLF
# B27: … (SEQ ID NO: 297) (peptide)
# peptide: TYIDTRTVF
# B28: … (SEQ ID NO: 349) (peptide)
# peptide: QYSIISNVF
# B29: … (SEQ ID NO: 267) (peptide)
# peptide: SFLNIEKTEILF
# B30: … (SEQ ID NO: 350) (peptide)
# peptide: KYGNFIDKL
# B31: … (SEQ ID NO: 354) (peptide)
# peptide: VYNEQIRDLL
# B32: … (SEQ ID NO: 316) (peptide)
# peptide: VYFEGSDFKF
# B33: … (SEQ ID NO: 294) (peptide)
# peptide: RFPVQGTVTF
# B34: … (SEQ ID NO: 318) (peptide)
# peptide: TYSNSAFQYF
# B35: … (SEQ ID NO: 282) (peptide)
# peptide: NYLVDPVTI
# B36: … (SEQ ID NO: 287) (peptide)
# peptide: IYNPNLLTASKF
# B37: … (SEQ ID NO: 310) (peptide)
# peptide: IYAPTLLVF
# B38: … (SEQ ID NO: 351) (peptide)
# peptide: IFHEVPLKF
# B39: … (SEQ ID NO: 295) (peptide)
# peptide: SYLVIHERI
# B40: … (SEQ ID NO: 259) (peptide)
# peptide: YFIKSPPSQLF
# B41: … (SEQ ID NO: 291) (peptide)
# peptide: YYLGSGRETF
# B42: … (SEQ ID NO: 308) (peptide)
# peptide: TFDGHGVFF
# B43: … (SEQ ID NO: 298) (peptide)
# peptide: AYKSEVVYF
# B44: … (SEQ ID NO: 343) (peptide)
# peptide: NYLGGTSTI
# B45: … (SEQ ID NO: 315) (peptide)
# peptide: FYIPHVPVSF
# B46: … (SEQ ID NO: 277) (peptide)
# peptide: FYTFPFQQL
# B47: … (SEQ ID NO: 289) (peptide)
# peptide: FFHEGQYVF
# B48: … (SEQ ID NO: 304) (peptide)
# peptide: EYNEVANLF
# B49: … (SEQ ID NO: 273) (peptide)
# peptide: IYGEKLQFIF
# B50: … (SEQ ID NO: 281) (peptide)
# peptide: NYSPGLVSLIL
# B51: … (SEQ ID NO: 265) (peptide)
# peptide: SYLNEAFSF
# B52: … (SEQ ID NO: 342) (peptide)
# peptide: NYAFLHRTL
# B53: … (SEQ ID NO: 283) (peptide)
# peptide: EYQEIFQQL
# B54: … (SEQ ID NO: 260) (peptide)
# peptide: VYMNVMTRL
# B55: … (SEQ ID NO: 302) (peptide)
# peptide: LYLPVHYGF
# B56: … (SEQ ID NO: 345) (peptide)
# peptide: EYNSDLHQFF
# B57: … (SEQ ID NO: 313) (peptide)
# peptide: KYTHFIQSF
# B58: … (SEQ ID NO: 276) (peptide)
# peptide: QYLDVLHAL
# B59: … (SEQ ID NO: 312) (peptide)
# peptide: SYTSVLSRL
# B60: … (SEQ ID NO: 296) (peptide)
# peptide: SYQVIFQHF
# B61: … (SEQ ID NO: 257) (peptide)
# peptide: IFIDNSTQPLHF
# B62: … (SEQ ID NO: 307) (peptide)
# peptide: GYAFTLPLF
# B63: … (SEQ ID NO: 353) (peptide)
# peptide: TYGKIDLGF
# B64: … (SEQ ID NO: 264) (peptide)
# peptide: LYTETRLQF
# B65: … (SEQ ID NO: 271) (peptide)
# peptide: RFLMKSYSF
# B66: … (SEQ ID NO: 274) (peptide)
# peptide: KQLDIANYELF
# B67: … (SEQ ID NO: 270) (peptide)
# peptide: YYSQESKVLYL
# B68: … (SEQ ID NO: 352) (peptide)
# peptide: QYGGDLTNTF
# B69: … (SEQ ID NO: 299) (peptide)
# peptide: KYQYVLNEF
# B70: … (SEQ ID NO: 275) (peptide)
# peptide: KYGTLDVTF
# B71: … (SEQ ID NO: 314) (peptide)
# peptide: RYFKGDYSI
# B72: … (SEQ ID NO: 280) (peptide)
# peptide: TYNPNLQDKL
# B73: … (SEQ ID NO: 348) (peptide)
# peptide: IYLEHTESI
# B74: … (SEQ ID NO: 269) (peptide)
# peptide: QYPYLQAFF
# B75: … (SEQ ID NO: 292) (peptide)
# peptide: FYPQIINTF
# Biological target: HLA-A*24 (human)
# Test: UV-exchange ELISA, exchange yield grade
row,peptide exchange yield [%],Binder
1,> 75,B1
2,50 to 75,B2
3,50 to 75,B3
4,20 to 49,B4
5,50 to 75,B5
6,50 to 75,B6
7,> 75,B7
8,50 to 75,B8
9,> 75,B9
10,> 75,B10
11,> 75,B11
12,50 to 75,B12
13,> 75,B13
14,> 75,B14
15,> 75,B15
16,50 to 75,B16
17,> 75,B17
18,20 to 49,B18
19,50 to 75,B19
20,20 to 49,B20
21,50 to 75,B21
22,50 to 75,B22
23,> 75,B23
24,50 to 75,B24
25,50 to 75,B25

row,peptide exchange yield [%],Binder
1,50 to 75,B26
2,> 75,B27
3,50 to 75,B28
4,20 to 49,B29
5,50 to 75,B30
6,50 to 75,B31
7,50 to 75,B32
8,50 to 75,B33
9,50 to 75,B34
10,50 to 75,B35
11,50 to 75,B36
12,50 to 75,B37
13,50 to 75,B38
14,50 to 75,B39
15,20 to 49,B40
16,50 to 75,B41
17,50 to 75,B42
18,> 75,B43
19,50 to 75,B44
20,50 to 75,B45
21,50 to 75,B46
22,> 75,B47
23,50 to 75,B48
24,50 to 75,B49
25,50 to 75,B50

row,peptide exchange yield [%],Binder
1,> 75,B51
2,50 to 75,B52
3,50 to 75,B53
4,> 75,B54
5,50 to 75,B55
6,50 to 75,B56
7,> 75,B57
8,> 75,B58
9,50 to 75,B59
10,> 75,B60
11,50 to 75,B61
12,50 to 75,B62
13,50 to 75,B63
14,> 75,B64
15,> 75,B65
16,> 75,B66
17,50 to 75,B67
18,50 to 75,B68
19,50 to 75,B69
20,> 75,B70
21,50 to 75,B71
22,> 75,B72
23,50 to 75,B73
24,50 to 75,B74
25,> 75,B75
